# T1: PTPN13_1, Q12923
# T1 sequence (Q12923 1088-1188, limits assumed, looked up): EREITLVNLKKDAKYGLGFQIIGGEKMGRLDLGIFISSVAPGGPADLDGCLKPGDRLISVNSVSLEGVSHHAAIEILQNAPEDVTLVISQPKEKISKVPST
# T2: SNTA1, Q13424
# T2 sequence (Q13424 82-180, limits assumed, looked up): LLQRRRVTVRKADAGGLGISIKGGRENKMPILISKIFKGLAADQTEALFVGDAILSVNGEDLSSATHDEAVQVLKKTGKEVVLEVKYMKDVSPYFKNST
# T3: LNX2_2, Q8N448
# T3 sequence (Q8N448 334-432, limits assumed, looked up): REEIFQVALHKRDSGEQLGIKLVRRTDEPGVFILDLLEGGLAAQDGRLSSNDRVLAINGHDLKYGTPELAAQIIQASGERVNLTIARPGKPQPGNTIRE
# T4: ARHGEF11, O15085
# T4 sequence (O15085 42-136, limits assumed, looked up): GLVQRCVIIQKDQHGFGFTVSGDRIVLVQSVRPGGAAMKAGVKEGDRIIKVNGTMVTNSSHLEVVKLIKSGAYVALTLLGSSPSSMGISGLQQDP
# T5: GRIP1_2, Q9Y3R0
# T5 sequence (Q9Y3R0 145-248, limits assumed, looked up): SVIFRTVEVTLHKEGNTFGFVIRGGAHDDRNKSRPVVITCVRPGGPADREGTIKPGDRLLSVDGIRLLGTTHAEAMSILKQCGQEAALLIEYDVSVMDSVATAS
# T6: SIPA1L2, Q9P2F8
# T6 sequence (Q9P2F8 945-1036, limits assumed, looked up): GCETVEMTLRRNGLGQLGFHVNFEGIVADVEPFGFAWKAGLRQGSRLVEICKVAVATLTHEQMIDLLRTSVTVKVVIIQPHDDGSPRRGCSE
# T7: PDZD7_3, Q9H5P4
# T7 sequence (Q9H5P4 857-944, limits assumed, looked up): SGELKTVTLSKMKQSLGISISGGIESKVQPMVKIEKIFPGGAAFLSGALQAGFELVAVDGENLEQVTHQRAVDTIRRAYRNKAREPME
# T8: GRIP1_3, Q9Y3R0
# T8 sequence (Q9Y3R0 247-346, limits assumed, looked up): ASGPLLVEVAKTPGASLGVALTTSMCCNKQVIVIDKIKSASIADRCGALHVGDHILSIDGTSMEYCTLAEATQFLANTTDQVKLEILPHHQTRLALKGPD
# T9: APBA2_1, Q99767
# T9 sequence (Q99767 563-664, limits assumed, looked up): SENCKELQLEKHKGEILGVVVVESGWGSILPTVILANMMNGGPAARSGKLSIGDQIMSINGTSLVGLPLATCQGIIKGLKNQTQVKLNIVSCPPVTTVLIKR
# T10: MPDZ_12, O75970
# T10 sequence (O75970 1857-1958, limits assumed, looked up): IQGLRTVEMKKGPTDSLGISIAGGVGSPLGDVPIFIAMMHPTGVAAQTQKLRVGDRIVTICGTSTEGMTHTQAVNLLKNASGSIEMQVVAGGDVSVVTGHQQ
# T11: GRIP1_4, Q9Y3R0
# T11 sequence (Q9Y3R0 467-571, limits assumed, looked up): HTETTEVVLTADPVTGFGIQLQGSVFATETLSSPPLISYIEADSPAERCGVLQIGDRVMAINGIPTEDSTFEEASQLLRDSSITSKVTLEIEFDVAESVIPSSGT
# B1: FOXI1, Q12951 (peptide)
# chain: VLYPREGTEV
# B2: CACYBP, Q9HB71 (peptide)
# chain: EKQAKGDTEF
# B3: RNF130, Q86XS8 (peptide)
# chain: SLNANEVEWF
# B4: EPHA6, Q9UF33 (peptide)
# chain: MHIQEKGFHV
# Experiments:
# Experiment in all cases: holdup assay
# Set-up in all cases: key: below the threshold = too weak to quantify, mostly under pKd 3.1 to 4
# Inadl_4, Q8NI35 = molecular target: Inadl_4, Q8NI35
# Inadl_4, Q8NI35, sequence (Q8NI35 547-651): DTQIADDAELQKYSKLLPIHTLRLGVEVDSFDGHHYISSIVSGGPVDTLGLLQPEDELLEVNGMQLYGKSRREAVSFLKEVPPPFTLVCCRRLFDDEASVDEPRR
# HTRA2, O43464 = molecular target: HTRA2, O43464
# HTRA2, O43464, sequence (O43464 355-458): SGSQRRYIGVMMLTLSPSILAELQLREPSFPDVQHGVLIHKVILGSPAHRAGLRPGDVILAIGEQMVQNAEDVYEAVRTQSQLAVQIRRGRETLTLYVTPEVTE
# LDB3, O75112 = molecular target: LDB3, O75112
# LDB3, O75112, sequence (O75112 1-94): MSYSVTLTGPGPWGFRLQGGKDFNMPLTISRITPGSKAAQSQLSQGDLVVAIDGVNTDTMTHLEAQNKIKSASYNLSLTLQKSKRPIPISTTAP
# PTPN13_1, Q12923 = molecular target: T1, PTPN13_1, Q12923
# SNTA1, Q13424 = molecular target: T2, SNTA1, Q13424
# LNX2_2, Q8N448 = molecular target: T3, LNX2_2, Q8N448
# GRIP2_7, Q9C0E4 = molecular target: GRIP2_7, Q9C0E4
# GRIP2_7, Q9C0E4, sequence (Q9C0E4 934-1023): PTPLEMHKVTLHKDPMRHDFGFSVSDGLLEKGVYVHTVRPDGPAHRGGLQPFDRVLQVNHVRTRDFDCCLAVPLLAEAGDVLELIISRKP
# DLG2_2, Q15700 = molecular target: DLG2_2, Q15700
# PDLIM1, O00151 = molecular target: PDLIM1, O00151
# PDLIM1, O00151, sequence (O00151 1-87): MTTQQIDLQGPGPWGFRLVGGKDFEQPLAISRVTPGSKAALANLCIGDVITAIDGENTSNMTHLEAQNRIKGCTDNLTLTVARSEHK
# Inadl_1, Q8NI35 = molecular target: Inadl_1, Q8NI35
# Inadl_1, Q8NI35, sequence (Q8NI35 113-229): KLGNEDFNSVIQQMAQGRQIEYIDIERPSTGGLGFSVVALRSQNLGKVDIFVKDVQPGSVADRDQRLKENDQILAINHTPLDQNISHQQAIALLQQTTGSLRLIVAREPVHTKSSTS
# ARHGEF11, O15085 = molecular target: T4, ARHGEF11, O15085
# LNX1_2, Q8TBB1 = molecular target: LNX1_2, Q8TBB1
# LNX1_2, Q8TBB1, sequence (Q8TBB1 371-470): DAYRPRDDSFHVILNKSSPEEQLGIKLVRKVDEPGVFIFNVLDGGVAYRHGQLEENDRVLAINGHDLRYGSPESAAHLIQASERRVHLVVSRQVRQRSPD
# SCRIB_1, Q14160 = molecular target: SCRIB_1, Q14160
# SCRIB_1, Q14160, sequence (Q14160 718-814): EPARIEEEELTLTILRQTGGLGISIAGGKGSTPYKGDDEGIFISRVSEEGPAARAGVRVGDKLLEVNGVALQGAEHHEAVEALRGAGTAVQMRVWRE
# PICK1, Q9NRD5 = molecular target: PICK1, Q9NRD5
# PICK1, Q9NRD5, sequence (Q9NRD5 17-115): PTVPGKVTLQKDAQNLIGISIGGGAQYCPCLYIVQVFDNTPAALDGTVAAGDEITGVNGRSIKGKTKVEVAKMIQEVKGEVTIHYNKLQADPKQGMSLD
# DLG2_3, Q15700 = molecular target: DLG2_3, Q15700
# MAST2, Q6P0Q8 = molecular target: MAST2, Q6P0Q8
# MAST2, Q6P0Q8, sequence (Q6P0Q8 1099-1202): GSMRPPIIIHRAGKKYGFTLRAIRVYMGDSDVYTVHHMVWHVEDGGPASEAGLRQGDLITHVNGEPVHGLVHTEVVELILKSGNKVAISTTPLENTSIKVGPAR
# GRIP1_2, Q9Y3R0 = molecular target: T5, GRIP1_2, Q9Y3R0
# SIPA1L2, Q9P2F8 = molecular target: T6, SIPA1L2, Q9P2F8
# GOPC, Q9HD26 = molecular target: GOPC, Q9HD26
# GIPC2, Q8TF65 = molecular target: GIPC2, Q8TF65
# GIPC2, Q8TF65, sequence (Q8TF65 112-203): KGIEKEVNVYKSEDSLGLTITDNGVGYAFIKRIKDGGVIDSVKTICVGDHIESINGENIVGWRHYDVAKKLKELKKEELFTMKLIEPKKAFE
# Inadl_3, Q8NI35 = molecular target: Inadl_3, Q8NI35
# Inadl_3, Q8NI35, sequence (Q8NI35 359-469): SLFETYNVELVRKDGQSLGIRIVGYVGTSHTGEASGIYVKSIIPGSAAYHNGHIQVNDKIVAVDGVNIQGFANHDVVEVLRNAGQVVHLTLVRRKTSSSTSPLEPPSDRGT
# PDZD7_3, Q9H5P4 = molecular target: T7, PDZD7_3, Q9H5P4
# GRIP1_3, Q9Y3R0 = molecular target: T8, GRIP1_3, Q9Y3R0
# APBA2_1, Q99767 = molecular target: T9, APBA2_1, Q99767
# ARHGEF12, Q9NZN5-2 = molecular target: ARHGEF12, Q9NZN5-2
# ARHGEF12, Q9NZN5-2, sequence (Q9NZN5 other isoform, or with tags, fused parts or gaps): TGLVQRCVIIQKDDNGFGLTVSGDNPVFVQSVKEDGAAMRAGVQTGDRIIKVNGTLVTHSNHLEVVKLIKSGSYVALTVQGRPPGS
# MPDZ_12, O75970 = molecular target: T10, MPDZ_12, O75970
# GRIP1_4, Q9Y3R0 = molecular target: T11, GRIP1_4, Q9Y3R0
# [1] = plain residues with an end cap or a label only (N-terminal biotin on a linker: ado-ado)
# [2] = plain residues with an end cap or a label only (N-terminal biotin on a linker: ahx)
binder,measurement,setting,value
B1,pKd,"Inadl_4, Q8NI35; [1]",below the threshold
same,pKd,"HTRA2, O43464; [1]",below the threshold
same,pKd,"LDB3, O75112; [1]",below the threshold
same,pKd,"PTPN13_1, Q12923; [1]",below the threshold
same,pKd,"SNTA1, Q13424; [1]",4.02
same,pKd,"LNX2_2, Q8N448; [1]",4.22
same,pKd,"GRIP2_7, Q9C0E4; [1]",below the threshold
same,pKd,"DLG2_2, Q15700; [1]",4.45
same,pKd,"PDLIM1, O00151; [1]",3.81
same,pKd,"Inadl_1, Q8NI35; [1]",below the threshold
same,pKd,"ARHGEF11, O15085; [1]",4.54
same,pKd,"LNX1_2, Q8TBB1; [1]",3.6
same,pKd,"SCRIB_1, Q14160; [1]",3.99
same,pKd,"PICK1, Q9NRD5; [1]",4.21
same,pKd,"DLG2_3, Q15700; [1]",3.9
same,pKd,"MAST2, Q6P0Q8; [1]",5.27
same,pKd,"GRIP1_2, Q9Y3R0; [1]",below the threshold
same,pKd,"SIPA1L2, Q9P2F8; [1]",below the threshold
same,pKd,"GOPC, Q9HD26; [1]",3.52
same,pKd,"GIPC2, Q8TF65; [1]",3.49
same,pKd,"Inadl_3, Q8NI35; [1]",3.72
same,pKd,"PDZD7_3, Q9H5P4; [1]",3.99
same,pKd,"GRIP1_3, Q9Y3R0; [1]",below the threshold
same,pKd,"APBA2_1, Q99767; [1]",below the threshold
same,pKd,"ARHGEF12, Q9NZN5-2; [1]",4.08
same,pKd,"MPDZ_12, O75970; [1]",below the threshold
same,pKd,"GRIP1_4, Q9Y3R0; [1]",below the threshold
B2,pKd,"Inadl_4, Q8NI35; [2]",below the threshold
same,pKd,"HTRA2, O43464; [2]",below the threshold
same,pKd,"LDB3, O75112; [2]",below the threshold
same,pKd,"PTPN13_1, Q12923; [2]",below the threshold
same,pKd,"SNTA1, Q13424; [2]",below the threshold
same,pKd,"LNX2_2, Q8N448; [2]",below the threshold
same,pKd,"GRIP2_7, Q9C0E4; [2]",below the threshold
same,pKd,"DLG2_2, Q15700; [2]",below the threshold
same,pKd,"PDLIM1, O00151; [2]",below the threshold
same,pKd,"Inadl_1, Q8NI35; [2]",below the threshold
same,pKd,"ARHGEF11, O15085; [2]",below the threshold
same,pKd,"LNX1_2, Q8TBB1; [2]",below the threshold
same,pKd,"SCRIB_1, Q14160; [2]",below the threshold
same,pKd,"PICK1, Q9NRD5; [2]",below the threshold
same,pKd,"DLG2_3, Q15700; [2]",below the threshold
same,pKd,"MAST2, Q6P0Q8; [2]",below the threshold
same,pKd,"GRIP1_2, Q9Y3R0; [2]",below the threshold
same,pKd,"SIPA1L2, Q9P2F8; [2]",below the threshold
same,pKd,"GOPC, Q9HD26; [2]",below the threshold
same,pKd,"GIPC2, Q8TF65; [2]",below the threshold
same,pKd,"Inadl_3, Q8NI35; [2]",below the threshold
same,pKd,"PDZD7_3, Q9H5P4; [2]",below the threshold
same,pKd,"GRIP1_3, Q9Y3R0; [2]",below the threshold
same,pKd,"APBA2_1, Q99767; [2]",below the threshold
same,pKd,"ARHGEF12, Q9NZN5-2; [2]",below the threshold
same,pKd,"MPDZ_12, O75970; [2]",below the threshold
same,pKd,"GRIP1_4, Q9Y3R0; [2]",below the threshold
B3,pKd,"Inadl_4, Q8NI35; [1]",below the threshold
same,pKd,"HTRA2, O43464; [1]",3.51
same,pKd,"LDB3, O75112; [1]",below the threshold
same,pKd,"PTPN13_1, Q12923; [1]",3.5
same,pKd,"SNTA1, Q13424; [1]",below the threshold
same,pKd,"LNX2_2, Q8N448; [1]",3.7
same,pKd,"GRIP2_7, Q9C0E4; [1]",3.94
same,pKd,"DLG2_2, Q15700; [1]",below the threshold
same,pKd,"PDLIM1, O00151; [1]",below the threshold
same,pKd,"Inadl_1, Q8NI35; [1]",3.52
same,pKd,"ARHGEF11, O15085; [1]",3.96
same,pKd,"LNX1_2, Q8TBB1; [1]",below the threshold
same,pKd,"SCRIB_1, Q14160; [1]",3.77
same,pKd,"PICK1, Q9NRD5; [1]",below the threshold
same,pKd,"DLG2_3, Q15700; [1]",3.73
same,pKd,"MAST2, Q6P0Q8; [1]",4.32
same,pKd,"GRIP1_2, Q9Y3R0; [1]",3.68
same,pKd,"SIPA1L2, Q9P2F8; [1]",3.54
same,pKd,"GOPC, Q9HD26; [1]",below the threshold
same,pKd,"GIPC2, Q8TF65; [1]",below the threshold
same,pKd,"Inadl_3, Q8NI35; [1]",below the threshold
same,pKd,"PDZD7_3, Q9H5P4; [1]",4.15
same,pKd,"GRIP1_3, Q9Y3R0; [1]",below the threshold
same,pKd,"APBA2_1, Q99767; [1]",3.61
same,pKd,"ARHGEF12, Q9NZN5-2; [1]",below the threshold
same,pKd,"MPDZ_12, O75970; [1]",below the threshold
same,pKd,"GRIP1_4, Q9Y3R0; [1]",below the threshold
B4,pKd,"Inadl_4, Q8NI35; [1]",below the threshold
same,pKd,"HTRA2, O43464; [1]",below the threshold
same,pKd,"LDB3, O75112; [1]",below the threshold
same,pKd,"PTPN13_1, Q12923; [1]",below the threshold
same,pKd,"SNTA1, Q13424; [1]",below the threshold
same,pKd,"LNX2_2, Q8N448; [1]",4.09
same,pKd,"GRIP2_7, Q9C0E4; [1]",3.93
same,pKd,"DLG2_2, Q15700; [1]",below the threshold
same,pKd,"PDLIM1, O00151; [1]",below the threshold
same,pKd,"Inadl_1, Q8NI35; [1]",below the threshold
same,pKd,"ARHGEF11, O15085; [1]",below the threshold
same,pKd,"LNX1_2, Q8TBB1; [1]",3.77
same,pKd,"SCRIB_1, Q14160; [1]",below the threshold
same,pKd,"PICK1, Q9NRD5; [1]",4.18
same,pKd,"DLG2_3, Q15700; [1]",below the threshold
same,pKd,"MAST2, Q6P0Q8; [1]",below the threshold
same,pKd,"GRIP1_2, Q9Y3R0; [1]",below the threshold
same,pKd,"SIPA1L2, Q9P2F8; [1]",below the threshold
same,pKd,"GOPC, Q9HD26; [1]",below the threshold
same,pKd,"GIPC2, Q8TF65; [1]",below the threshold
same,pKd,"Inadl_3, Q8NI35; [1]",below the threshold
same,pKd,"PDZD7_3, Q9H5P4; [1]",below the threshold
same,pKd,"GRIP1_3, Q9Y3R0; [1]",below the threshold
same,pKd,"APBA2_1, Q99767; [1]",below the threshold
same,pKd,"ARHGEF12, Q9NZN5-2; [1]",below the threshold
same,pKd,"MPDZ_12, O75970; [1]",below the threshold
same,pKd,"GRIP1_4, Q9Y3R0; [1]",below the threshold
